Biological target: recombinant His-tagged PLS3 protein (pQE vector) (UniProt Q9NRY6)
Sequence (Q9NRY6 whole entry): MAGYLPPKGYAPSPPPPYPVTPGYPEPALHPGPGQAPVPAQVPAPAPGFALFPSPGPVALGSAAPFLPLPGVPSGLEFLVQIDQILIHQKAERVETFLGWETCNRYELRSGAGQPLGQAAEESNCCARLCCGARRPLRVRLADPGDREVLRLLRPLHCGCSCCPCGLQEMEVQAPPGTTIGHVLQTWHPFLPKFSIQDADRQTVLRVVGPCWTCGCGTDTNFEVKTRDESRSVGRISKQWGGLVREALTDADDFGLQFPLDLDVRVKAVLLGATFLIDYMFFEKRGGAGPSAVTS

recombinant PKC-δ enzyme (Calbiochem)
in vitro phosphorylation: The PLS3 protein was a high-affinity substrate for PKC-δ and the phosphorylation steadily increased over the first 25 minutes
km: it was determined that the km is 10.5 nM
